How the values were obtained:
[1] = target: FimC-FimH (Escherichia coli) (UniProt P31697); test: SPR; settings: cited from earlier work
[2] = target: FimC_(Q19C)-FimH chaperone-adhesin complex, FimC labeled with coumarin maleimide (CPM) (Escherichia coli) (UniProt P31697); test: other fluorescence titration
[3] = target: FimCFimH, where FimC was labeled with the thiol-reactive probe coumarin maleimide (CPM) at Q19C, T51; test: other fluorescence titration

Substance	Kd [2] [nM]	further results
FimD (from UniProt P30130)	–	Kd [1]: 9.1 nM
FimDΔC2 (purified, His-tag removed) (from UniProt P30130 46-878) (domain or fragment)	213	–
WT FimD usher (purified, His-tag removed) (from UniProt P30130 46-878) (natural protein)	–	Kd [3]: 9.5 nM

Further lines, with some results ahead:

Kd [2] [nM]	Substance	further results
389	FimD_(ΔC1ΔC2) (purified, His-tag removed) (from UniProt P30130 46-878) (domain or fragment)	–
40.8	FimD_(ΔNΔplug) (purified, His-tag removed) (from UniProt P30130 46-878) (domain or fragment)	–
> 1200	FimDΔN (purified, His-tag removed) (from UniProt P30130 46-878) (domain or fragment)	–
